Experimental data taken from US20050124794A1, “Cell surface tropomyosin as a target of angiogenesis inhibition” (priority 2002, published 2005).

Key:
[1] = target: Chicken gizzard tropomyosin (Tpm), purified (chicken); assay: plate assays on immobilized chicken gizzard Tpm (FIGS. 14 and 15)
[2] = target: Chicken gizzard tropomyosin (Tpm), purified (chicken); assay: competition with 10 nM biotin-HKa on plate coated with chicken gizzard Tpm, 10 µM ZnCl2
[3] = target: Chicken gizzard tropomyosin (Tpm), purified (chicken); assay: competition ELISA against 10 nM biotin-HKa on immobilized chicken gizzard Tpm, 10 uM ZnCl2; Kd by non-linear regression
[4] = target: Tropomyosin (Tpm) exposed on the surface of proliferating human umbilical vein endothelial cells (human); assay: biotin-HKa on unfixed subconfluent HUVEC in 96-well plates, 4 °C, with and without 10 µM Zn2+, streptavidin-peroxidase; nonlinear regression

Chicken gizzard tropomyosin (Tpm), purified (chicken), sequence (chain, as listed by the source limits assumed): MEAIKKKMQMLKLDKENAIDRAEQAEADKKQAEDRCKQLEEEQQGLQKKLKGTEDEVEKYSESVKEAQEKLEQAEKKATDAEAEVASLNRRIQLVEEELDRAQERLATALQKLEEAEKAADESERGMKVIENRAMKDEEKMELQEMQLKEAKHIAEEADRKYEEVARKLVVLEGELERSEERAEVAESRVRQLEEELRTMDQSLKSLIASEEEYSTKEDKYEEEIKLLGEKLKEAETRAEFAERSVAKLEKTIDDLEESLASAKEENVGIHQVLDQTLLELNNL
Endostatin (ligand), sequence (P39060 1572-1754): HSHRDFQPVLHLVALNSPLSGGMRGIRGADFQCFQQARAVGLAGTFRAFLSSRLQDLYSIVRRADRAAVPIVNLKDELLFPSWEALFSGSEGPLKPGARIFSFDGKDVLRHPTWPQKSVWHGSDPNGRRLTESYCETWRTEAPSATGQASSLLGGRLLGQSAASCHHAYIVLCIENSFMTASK

Row | Substance | fold lower affinity than HKa or HKa-D5 [1] [fold] | Kd [2] [nM] | Kd [3] [nM] | Kd [4] [nM]
1 | Endostatin (ligand) | 1000 | 2000 | 1970 | 
2 | Two-chain high molecular weight kininogen (HKa) (from UniProt P01042 19-380; P01042 390-644) (ligand) |  |  |  | 2.5
